We go through seven molecules from article PMC4309443.

Assay [1] deals with recombinant human TAF2, full length (human). Nature of the assay: native MS; TAF2–8–10 in 500 mM ammonium acetate pH 7.5, Q-ToF II, collision-induced dissociation.
Assay [2] shares this target. Nature of the assay: AUC; sedimentation velocity, absorbance at 280 nm, 42,000 r.p.m., 10 °C; c(s) analysis with Sedfit.
The target in assay [3] is truncated Importin α1 (residues 71–497) (UniProt P52292). Nature of the assay: ITC; MicroCal iTC200, 25 °C; 1.5 mM TAF8 peptide injected into 39 μM Importin α1; 25 mM Tris-HCl pH 8.0, 150 mM NaCl, 1 mM β-mercaptoethanol; one-site model; duplicates.
In assay [4] the target is recombinant human TAF8, full length (human) (UniProt Q7Z7C8). Nature of the assay: AUC; sedimentation velocity, absorbance at 280 nm, 42,000 r.p.m., 10 °C; c(s) analysis with Sedfit.
Assay [5] concerns the target recombinant human TAF2, full length (human). Nature of the assay: SPR; BIACORE 3000, 25 °C; TAF2 amine-coupled to CM5 (2,500 RU); MBP–TAF8 analytes at 500 nM; 25 mM HEPES-NaOH pH 7.0, 300 mM NaCl, 0.01% NP-40. (In general: Surface plasmon resonance follows binding to a sensor surface in real time, without labels.)

Usually stoichiometry N stands for a count of units in the complex or per binding partner. On to “TAF8–10 complex (full-length TAF8 and TAF10) (from UniProt Q7Z7C8-1 1-310)”, for which the stoichiometry N in assay [1] and in assay [2] was 1 in each case.
The term Kd denotes the free concentration of one partner at which half of the binding sites on the other are occupied at equilibrium, for simple one-to-one binding. With “TAF8 NLS peptide used for ITC (printed as residues 288–310)”, in assay [3], the Kd was determined as 10.4 µM, the dH was -18.5 kcal/mol and the stoichiometry N was found to be 1.
With “recombinant human TAF10, full length (natural protein)”, the stoichiometry N in assay [4] stood at 1.

B1: MBP–TAF8 (residues 105–260) (domain or fragment)
chain: DTLPAYAKRSQRMVITAPPVTNQPVTPKALTAGQNRPHPPHIPSHFPEFPDPHTYIKTPTYREPVSDYQVLREKAASQRRDVERALTRFMAKTGETQSLFKDDVSTFPLIAARPFTIPYLTALLPSELEMQQMEETDSSEQDEQTDTENLALHISM
For B1, in assay [5], the maximal association level is below 10 RU.

B2: MBP–TAF8 (residues 141–310) (domain or fragment)
chain: PHPPHIPSHFPEFPDPHTYIKTPTYREPVSDYQVLREKAASQRRDVERALTRFMAKTGETQSLFKDDVSTFPLIAARPFTIPYLTALLPSELEMQQMEETDSSEQDEQTDTENLALHISMEDSGAEKENTSVLQQNPSLSGSRNGEENIIDNPYLRPVKKPKIRRKKSLS
In the case of B2, the maximal association level in assay [5] amounted to 40 RU.

B3: MBP–TAF8 (residues 200–310) (domain or fragment)
chain: TQSLFKDDVSTFPLIAARPFTIPYLTALLPSELEMQQMEETDSSEQDEQTDTENLALHISMEDSGAEKENTSVLQQNPSLSGSRNGEENIIDNPYLRPVKKPKIRRKKSLS
In the case of B3, in assay [5], the maximal association level is below 10 RU.

B4: MBP–TAF8 (residues 105–310) (domain or fragment)
chain: DTLPAYAKRSQRMVITAPPVTNQPVTPKALTAGQNRPHPPHIPSHFPEFPDPHTYIKTPTYREPVSDYQVLREKAASQRRDVERALTRFMAKTGETQSLFKDDVSTFPLIAARPFTIPYLTALLPSELEMQQMEETDSSEQDEQTDTENLALHISMEDSGAEKENTSVLQQNPSLSGSRNGEENIIDNPYLRPVKKPKIRRKKSLS
Turning to B4, the maximal association level in assay [5] worked out at 85 RU.
